Measurements from US20240317847A1 (Bayer, published 2024).
Changes are numbered by the printed parent chain.

T1: human IL2Ra (human, UniProt P01589 22-240, limits assumed)
T1 construct: coated on the ELISA plate; also called IL-2 receptor alpha
T1 sequence (looked up): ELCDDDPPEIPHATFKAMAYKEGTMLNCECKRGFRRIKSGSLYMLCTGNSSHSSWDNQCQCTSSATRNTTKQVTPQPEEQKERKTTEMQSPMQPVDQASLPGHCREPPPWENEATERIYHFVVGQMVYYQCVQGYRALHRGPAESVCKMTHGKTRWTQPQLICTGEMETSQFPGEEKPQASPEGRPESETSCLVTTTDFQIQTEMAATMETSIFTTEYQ

T2: human IL-11 (human, UniProt P20809 22-199)
T2 sequence: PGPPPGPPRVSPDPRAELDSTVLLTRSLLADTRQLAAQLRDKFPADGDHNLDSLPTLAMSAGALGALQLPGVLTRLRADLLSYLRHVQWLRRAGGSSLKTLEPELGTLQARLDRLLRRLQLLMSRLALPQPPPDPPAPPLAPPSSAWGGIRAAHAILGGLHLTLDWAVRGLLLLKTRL

T3: murine IL-11 (mouse, UniProt P47873 22-199)
T3 sequence: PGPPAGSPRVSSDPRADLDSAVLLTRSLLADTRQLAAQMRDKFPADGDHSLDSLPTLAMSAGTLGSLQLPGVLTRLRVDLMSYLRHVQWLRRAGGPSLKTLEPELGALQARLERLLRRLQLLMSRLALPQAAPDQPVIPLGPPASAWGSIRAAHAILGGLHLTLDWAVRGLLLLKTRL

B1: TPP-18068 (antibody, mouse IgG1)
heavy: EVQLLESGGGLVQPGGSLRLSCAASGFTFSSYGMHWVRQAPGKGLEWVSVISYDGSYKYYADSVKGRFTISRDNSKNTLYLQMNSLRAEDTAVYYCAAGVPDYWGQGTLVTVSSAKTTPPSVYPLAPGSAAQTNSMVTLGCLVKGYFPEPVTVTWNSGSLSSGVHTFPAVLQSDLYTLSSSVTVPSSTWPSETVTCNVAHPASSTKVDKKIVPRDCGCKPCICTVPEVSSVFIFPPKPKDVLTITLTPKVTCVVVDISKDDPEVQFSWFVDDVEVHTAQTQPREEQFNSTFRSVSELPIMHQDWLNGKEFKCRVNSAAFPAPIEKTISKTKGRPKAPQVYTIPPPKEQMAKDKVSLTCMITDFFPEDITVEWQWNGQPAENYKNTQPIMDTDGSYFVYSKLNVQKSNWEAGNTFTCSVLHEGLHNHHTEKSLSHSPGK
light: QSVLTQPPSASGTPGQRVTISCTGSSSNIGAGYDVHWYQQLPGTAPKLLIYSNNERPSGVPDRFSGSKSGTSASLAISGLRSEDEADYYCAAWDDSLNGPVFGGGTKLTVLGQPKSSPSVTLFPPSSEELETNKATLVCTITDFYPGVVTVDWKVDGTPVTQGMETTQPSKQSNNKYMASSYLTLTARAWERHSSYSCQVTHEGHTVEKSLSRADCS
notes: mIgG1, Lambda
B2: TPP-29528 (antibody, mouse IgG1)
heavy: B1 heavy with S49A
light: B1 light with T23S, A31S, G32D, N54E, A91S, D95S, N98S
notes: mIgG1, Lambda
B3: TPP-18087 (antibody, mouse IgG1, V domains shown)
VH: EVQLLESGGGLVQPGGSLRLSCAASGFTFSHYDMNWLRQAPGKGLEWVGVISYDGSNKFYADFVKGRFTISRDNSKNTLYLQMNSLRAEDTAVYYCARTPGSHFDYWGQGTLVTVSS
VL: QSVLTQPPSASGTPGQRVTISCSGSSSNIGNNAVNWYQQLPGTAPKLLIYYDDLLPSGVPDRFSGSKSGTSASLAISGLRSEDEADYYCSAWDDSLNGVVFGGGTKLTVLG
notes: mIgG1, Lambda
B4: TPP-29519 (antibody, mouse IgG1)
heavy: QVQLVESGGGVVQPGRSLRLSCAASGFTFSHYDMHWVRQAPGKGLEWVAVISYHGSVKFYADSVKGRFTISRDNSKNTLYLQMNSLRAEDTAVYYCARTPGFHFDYWGQGTLVTVSSAKTTPPSVYPLAPGSAAQTNSMVTLGCLVKGYFPEPVTVTWNSGSLSSGVHTFPAVLQSDLYTLSSSVTVPSSTWPSETVTCNVAHPASSTKVDKKIVPRDCGCKPCICTVPEVSSVFIFPPKPKDVLTITLTPKVTCVVVDISKDDPEVQFSWFVDDVEVHTAQTQPREEQFNSTFRSVSELPIMHQDWLNGKEFKCRVNSAAFPAPIEKTISKTKGRPKAPQVYTIPPPKEQMAKDKVSLTCMITDFFPEDITVEWQWNGQPAENYKNTQPIMDTDGSYFVYSKLNVQKSNWEAGNTFTCSVLHEGLHNHHTEKSLSHSPGK
light: QSVLTQPPSASGTPGQRVTISCSGSSSNIGSNYVSWYQQLPGTAPKLLIYYDDLRPSGVPDRFSGSKSGTSASLAISGLRSEDEADYYCSAWDDSLSGVVFGGGTKLTVLGQPKSSPSVTLFPPSSEELETNKATLVCTITDFYPGVVTVDWKVDGTPVTQGMETTQPSKQSNNKYMASSYLTLTARAWERHSSYSCQVTHEGHTVEKSLSRADCS
notes: mIgG1, Lambda
B5: TPP-29603 (bispecific antibody, IgG1)
chain 1: QVQLVESGGGVVQPGRSLRLSCAASGFTFSHYDMHWVRQAPGKGLEWVAVISYHGSVKFYADSVKGRFTISRDNSKNTLYLQMNSLRAEDTAVYYCARTPGFHFDYWGQGTLVTVSSGGGGSGGGGSGGGGSQSVLTQPPSASGTPGQRVTISCSGSSSNIGSNYVSWYQQLPGTAPKLLIYYDDLRPSGVPDRFSGSKSGTSASLAISGLRSEDEADYYCSAWDDSLSGVVFGGGTKLTVLGGGGSGGGGSGGGGSGVECPPCPAPPVAGPSVFIFPPKPKDVLTITLTPKVTCVVVDISKDDPEVQFSWFVDDVEVHTAQTQPREEQFNSTFRSVSELPIMHQDWLNGKEFKCRVNSAAFPAPIEKTISKTKGRPKAPQVYTIPPCKEQMAKDKVSLWCMITDFFPEDITVEWQWNGQPAENYKNTQPIMDTDGSYFVYSKLNVQKSNWEAGNTFTCSVLHEGLHNHHTEKSLSHSPGK
chain 2: EVQLLESGGGLVQPGGSLRLSCAASGFTFSSYGMHWVRQAPGKGLEWVAVISYDGSYKYYADSVKGRFTISRDNSKNTLYLQMNSLRAEDTAVYYCAAGVPDYWGQGTLVTVSSGGGGSGGGGSGGGGSQSVLTQPPSASGTPGQRVTISCSGSSSNIGSDYDVHWYQQLPGTAPKLLIYSNEERPSGVPDRFSGSKSGTSASLAISGLRSEDEADYYCSAWDSSLSGPVFGGGTKLTVLGGGGSGGGGSGGGGSGVECPPCPAPPVAGPSVFIFPPKPKDVLTITLTPKVTCVVVDISKDDPEVQFSWFVDDVEVHTAQTQPREEQFNSTFRSVSELPIMHQDWLNGKEFKCRVNSAAFPAPIEKTISKTKGRPKAPQVCTIPPPKEQMAKDKVSLSCAITDFFPEDITVEWQWNGQPAENYKNTQPIMDTDGSYFVVSKLNVQKSNWEAGNTFTCSVLHEGLHNHHTEKSLSHSPGK
notes: scFv-kih-mIgG1; bispecific comprising CDRs of TPP-29528 and TPP-29519
B6: TPP-29697 (bispecific antibody, IgG1)
chain 1: QVQLVESGGGVVQPGRSLRLSCAASGFTFSHYDMHWVRQAPGKGLEWVAVISYHGSVKFYADSVKGRFTISRDNSKNTLYLQMNSLRAEDTAVYYCARTPGFHFDYWGQGTLVTVSSGGGGSGGGGSGGGGSQSVLTQPPSASGTPGQRVTISCSGSSSNIGSNYVSWYQQLPGTAPKLLIYYDDLRPSGVPDRFSGSKSGTSASLAISGLRSEDEADYYCSAWDDSLSGVVFGGGTKLTVLGGGGSGGGGSGGGGSGVECPPCPAPPVAGPSVFLFPPKPKDTLMISRTPEVTCVVVGVSHEDPEVKFNWYVDGVEVHNAKTKPREEQYNSTYRVVSVLTVLHQDWLNGKEYKCKVSNKQLPSPIEKTISKAKGQPREPQVYTLPPCRDELTKNQVSLWCLVKGFYPSDIAVEWESNGQPENNYKTTPPVLDSDGSFFLYSKLTVDKSRWQQGNVFSCSVMHEALHNHYTQKSLSLSPGK
chain 2: EVQLLESGGGLVQPGGSLRLSCAASGFTFSSYGMHWVRQAPGKGLEWVAVISYDGSYKYYADSVKGRFTISRDNSKNTLYLQMNSLRAEDTAVYYCAAGVPDYWGQGTLVTVSSGGGGSGGGGSGGGGSQSVLTQPPSASGTPGQRVTISCSGSSSNIGSDYDVHWYQQLPGTAPKLLIYSNEERPSGVPDRFSGSKSGTSASLAISGLRSEDEADYYCSAWDSSLSGPVFGGGTKLTVLGGGGSGGGGSGGGGSGVECPPCPAPPVAGPSVFLFPPKPKDTLMISRTPEVTCVVVGVSHEDPEVKFNWYVDGVEVHNAKTKPREEQYNSTYRVVSVLTVLHQDWLNGKEYKCKVSNKQLPSPIEKTISKAKGQPREPQVCTLPPSRDELTKNQVSLSCAVKGFYPSDIAVEWESNGQPENNYKTTPPVLDSDGSFFLVSKLTVDKSRWQQGNVFSCSVMHEALHNHYTQKSLSLSPGK
notes: scFv-kih-hIgG1 with Fc-silencing mutations; bispecific comprising CDRs of TPP-29528 and TPP-29519

Columns and labels:
human IL2Ra = biological target: T1, human IL2Ra; test: ELISA on coated IL2Ra, signal ratio to isotype control TPP-10159 at 3.3E-7 M antibody
Protocol: IL2RA (Peprotech, Germany, #200-02RC) was coated at 1 or 0 μg/ml (buffer only control) in 30 μl coating buffer (Candor, #113500) per well on a 384 well microtiter plate (Maxisorb, Nunc, #460518) over night at 4-8° C. After two washes with 50 μl/well washing buffer (PBS+0.05% Tween, pH 7.4), the plates were incubated for two hours at room temperature with 50 μl/well SmartBlock (Candor, #113500). After blocking, the plates were washed three times with washing buffer. Then, a dilution series of the respective antibody (1E-7 [M] down to 2E-13 [M]) in PBS+0.05% Tween, 10% SmartBlock were added in 30 μl to the microtiter plate and incubated for 90 min at room temperature. After three additional washes, 30 μl anti mouse IgG HRP-conjugated antibody (Biotechne, HAF007), diluted 1:1000 in PBS+0.05% Tween (pH 7.4), were added per well and incubated for one hour. After three additional washes, a mixture of Amplex red (Invitrogen, #12222, 10 mM stock solution in DMSO) 1:1000 diluted in PBS and H2O2 (30%, Merck, #107209)) diluted 1:10000 in PBS were added as substrate with 30 μl per well and incubated for 20 min in the dark. Relative fluorescence was measured with a microtiter plate reader at 535/590 nm.
IgG converted antibodies TPP-were tested for binding to IL2Ra as described in Example 20. The ratios of the signals obtained at an antibody concentration of 3.3E-7 [M] for IgG converted antibody versus the isotype control TPP-10159 were calculated and are shown in Table E22.

human IL-11 = biological target: T2, human IL-11; test: cell-based or functional assay
murine IL-11 [1] = biological target: T3, murine IL-11; test: cell-based or functional assay
murine IL-11 [2] = biological target: T3, murine IL-11; test: Tri-complex ELISA, mIL-11 + mIL-11Ra-Fc + mgp130-Fc, inhibition of complex formation
Protocol: In the Tri-complex ELISA format IL-11 antibodies are tested for their ability to inhibit the formation of a complex consisting of murine or human gp130-Fc fusion protein, with murine or human IL-11, and a murine IL11RA-Fc fusion protein. The assay format was adapted according to FIG. 18 (a, b), depending on whether murine or human IL-11 IgG antibodies were tested.
Bispecific antibodies were subjected to the experimental assay procedure described in Example 19 and IC50 [M], respectively efficacy (%) were calculated accordingly.

Binder | Antibody/Isotype Control Ratio of IL-2Ra Binding Signals (human IL2Ra) [ratio] | Efficacy (%), Stat3 reporter gene assay (human IL-11) [%] | IC50, Stat3 reporter gene assay (human IL-11) [nM] | Efficacy (%), Stat3 reporter gene assay (murine IL-11 [1]) [%] | IC50, Stat3 reporter gene assay (murine IL-11 [1]) [nM] | Efficacy (%) (murine IL-11 [2]) | IC50 (murine IL-11 [2]) [nM]
B1 | 377 | 20.7 | 4.8 | 84.1 | 2.7 |  | 
B2 | 24.2 |  |  |  |  |  | 
B3 | 0.6 | 51.5 | 110 | 49 | 330 |  | 
B4 | 0.7 |  |  |  |  |  | 
B5 |  |  |  |  |  | 98.5 | 0.17
B6 |  |  |  |  |  | 104 | 0.0622
